{"source": "patent US20060233704A1", "about": "“Prochelator for the preparation of radiometal labeled molecules having improved biological properties” (priority 2000, published 2006)", "type": "physicochemical", "protocol": "In addition, the stability is higher. The reaction of ^90Y-DOTATOC or ^90Y-DOTAGA at 37° C. with the chelator DTPA results in ^90Y-DTPA.", "data": [{"compound": "C[C@@H](O)[C@@H]1NC(=O)[C@H](CCCCN)NC(=O)[C@@H](Cc2c[nH]c3ccccc23)NC(=O)[C@H](Cc2ccc(O)cc2)NC(=O)[C@@H](NC(=O)[C@@H](Cc2ccccc2)NC(=O)CCC(C(=O)O)N2CCN(CC(=O)O)CCN(CC(=O)O)CCN(CC(=O)O)CC2)CSSC[C@@H](C(=O)N[C@H](CO)[C@@H](C)O)NC1=O", "note": "(single isomer, unassigned) [DOTAGA]", "values": [{"measurement": "half-life", "result": 79, "unit": "h"}]}]}
